Experimental data published in the DeepSol protein solubility set.

Assay: soluble on expression in E. coli; label from the status in PepcDB or PDB records

Soluble on expression in E. coli, soluble:
MVPEVIEIDGKQWRLIWHDEFEGSEVNKEYWTFEKGNGIAYGIPGWGNGELEYYTENNTYIVNGTLVIEARKEIITDPNEGTFLYTSSRLKTEGKVEFSPPVVVEARIKLPKGKGLWPAFWMLGSNIREVGWPNCGEIDIMEFLGHEPRTIHGTVHGPGYSGSKGITRAYTLPEGVPDFTEDFHVFGIVWYPDKIKWYVDGTFYHEVTKEQVEAMGYEWVFDKPFYIILNLAVGGYWPGNPDATTPFPAKMVVDYVRVYSFVSG
MHRVHGTLHASFTIECRNMFKRFFLALIGVGILLSESTQASESPPYSMVLLTENFPPFNMAVDGKNFAQENNIDGIAAEVVREMFKRANIGYSMTLRFPWDRVYKLALDKPGYGVFSTTRLPEREKLFKWIGPLGSYDWIMLARGDSPITLASLEQAKDYRIGAYKGDAIGERLNAMGLNPILMLRDRDNVKKLANGQIDLWAVGDPVGRYLAKLEGVSGFKTALRFNSAELYLAVNKSTPDEIVNRLQAALDQMRTEGWVDAVKARYQLEHHHHHH
MKGIEVENLKFSHNGREILHDINFEIDKGSFLIILGPNGAGKTTLLRCIAGILKYKGSIKVLGNDIKELSRIELAKLLAYVPQRIEPGFLRVFDFVLLGRKPYMGLNPGRKDLKAVEDALRLLGIQRLEDRIMKTLSGGELQKVAIARAIAQETPVILLDEPTNNLDPKSQIEVMEIIKDLVKRGKTVVTVMHDLTLALRFGEEFLFLKDGRSTGLLTREELEEKILSETYGVKIRVARVEGEVIPLVGL
RTEDLPKAVVFLEPQWYSVLEKDSVTLKCQGAYSPEDNSTQWFHNESLISSQASSYFIDAATVNDSGEYRCQTNLSTLSDPVQLEVHIGWLLLQAPRWVFKEEDPIHLRCHSWKNTALHKVTYLQNGKDRKYFHHNSDFHIPKATLKDSGSYFCRGLVGSKNVSSETVNITITQGL
MSLSEYRRKRSFDKTREPEPGKTLPPGQRAIFVVQLHHASRRHYDFRLQVGDALKSWAVPKGPSYDPKVKRMAVEVEDHPVDYASFEGEIPRGEYGGGHVAQFDHGVWATAGDPEAQLAKGHLRFELFGNKLKGGWHLVRSGKPARQPQWLLFKEDDAYAGLEHHHHHH
MRIDTVNVLLEALPYIKEFYGKTFVIKFGGSAMKQENAKKAFIQDIILLKYTGIKPIIVHGGGPAISQMMKDLGIEPVFKNGHRVTDEKTMEIVEMVLVGKINKEIVMNLNLHGGRAVGICGKDSKLIVAEKETKHGDIGYVGKVKKVNPEILHALIENDYIPVIAPVGIGEDGHSYNINADTAAAEIAKSLMAEKLILLTDVDGVLKDGKLISTLTPDEAEELIRDGTVTGGMIPKVECAVSAVRGGVGAVHIINGGLEHAILLEIFSRKGIGTMIKELEG
MSDNLVLPTYDDVASASERIKKFANKTPVLTSSTVNKEFVAEVFFKCENFQKMGAFKFRGALNALSQLNEAQRKAGVLTFSSGNHAQAIALSAKILGIPAKIIMPLDAPEAKVAATKGYGGQVIMYDRYKDDREKMAKEISEREGLTIIPPYDHPHVLAGQGTAAKELFEEVGPLDALFVCLGGGGLLSGSALAARHFAPNCEVYGVEPEAGNDGQQSFRKGSIVHIDTPKTIADGAQTQHLGNYTFSIIKEKVDDILTVSDEELIDCLKFYAARMKIVVEPTGCLSFAAARAMKEKLKNKRIGIIISGGNVDIERYAHFLSQ

Soluble on expression in E. coli, not soluble:
MLAPERIHPALWRATQLAHGPTRKLPTGYADLSAQLPGGGWPLGALVELLLPQPGSGEIRLLRPALAQLEARRAIALVQPPHAPHIASWASWRLDPRQLLWVAPERPADALWAAEQILKAGSCAALLCWLPQVRPESLRRLHLAAQGGDALFVALRPAAAEQHASPAVLRLALAPAPGGLSIRIVKRRGPACEHPVHVGLEAGAGLSVFPAPHAPLDRRLPAQPVAGRRTPALVSLEHHHHHH
MININRYTLSNGLRVIHNEDNTTQMVALNLLYDVGARDEDPDHTGFAHLFEHLMFGGSIHVPDYDTPVQNAGGENNAWTNNDITNYYITLPRQNVETGFWLESDRMLSLDFNPRSLEVQRQVVIEEFKQRNLNQPYGDASHLLRALAYKVHPYQWPTIGKEISHIANATLEEVKAFFFKYYAPDNAILAVTGHITFEETVTLAEKWFGPIPRRNVAP
EVVPLAFTKAATQPAPGVKPYNALQVAGRDIYIREGCYNCHSQMIRPFRAETERYGHYSVAGESVYDHPFQWGSKRTGPDLARVGGRYSDEWHRIHLLNPRDVVPESNMPAFPWLARNKVDVDATVANMKALRKVGTPYSDEEIAKAPEALANKSELDAVVAYLQGLGLALKNVR
MLSKTNQNIFTVSRLNAEVRLLLENEMGIVWLVGEISNFSAPVSGHWYLTLKDSRAQVKCAMFRGNNRRVTFKPANGNQVLVKARLSLYEPRGDYQLIIESMQPEGDGRLQQEFEELKMKLAAEGLFAQTNKLPLPEHPKRVGIITSKTGAALYDILDVLKRRDPSLPVVIYPTMVQGDDAAIQIAQAIGRANSRNECDVLIVGRGGGSLEDLWCFNNEILARTIAASQIPIISAVGHEVDMTIADFVADVRAPTPSAAAELVSRDNSHKDQSLVAKQHKLASAMRYYLSQQKQQSAQLLHRLERQHPSYQLQRQSQQLDELDMRLRRAMQRFIDTRQQAVERKHHRLQLNSPVKHLAQQKSRLERVEHKLLDTMDRKLLTMRHQLAIAAEKLDTVSPLATLKRGYSITQTEQGKVVTSADDVKTGDLLVTRLANGEIHSTVS
LLRHISDAFAEDPLRVLRVARFAARFHHLGFSIAEQTLELMQKMTACGELNHLTAERIWRETEKALHTESPHIYFQVLRKVNALAILFPEIDQLFGQIQSVKYHLETDRGQHTLLALQQAKLLVKQAHNPTALLWAVLCHDLGKDLISAEMLPHHYQPNVTGIQLTHQLADRLKVPTAVKELALLVNKYHTNCHKIAELDSERVLELFNQLDVWRKPQRLDDFLLACEADARARLGAEYCSYPQA
MRKTKIVCTIGPASESEEMIEKLINAGMNVARLNFSHGSHEEHKGRIDTIRKVAKRLDKIVAILLDTKGPEIRTHNMKDGIIELERGNEVIVSMNEVEGTPEKFSVTYENLINDVQVGSYILLDDGLIELQVKDIDHAKKEVKCDILNSGELKNKKGVNLPGVRVSLPGITEKDAEDIRFGIKENVDFIAASFVRRPSDVLEIREILEEQKANISVFPKIENQEGIDNIAEILEVSDGLMVARGDMGVEIPPEKVPMVQKDLIRQCNKLGKPVITATQMLDSMQRNPRATRAEASDVANAIYDGTDAVMLSGETAAGLYPEEAVKTMRNIAVSAEAAQDYKKLLSDRTKLVETSLVNAIGISVAHTALNLNVKAIVAATESGSTARTISKYRPHSDIIAVTPSEETARQCSIVWGVQPVVKKGRKSTDALLNNAVATAVETGRVSNGDLIIITAGVPTGETGTTNMMKIHLVGDEIANGQGIGRGSVVGTTLVAETVKDLEGKDLSDKVIVTNSIDETFVPYVEKALGLITEENGITSPSAIVGLEKGIPTVVGVEKAVKNISNNMLVTIDAAQGKIFEGYANVL
MNYAEICIIKRDGKREDFSISKIKNAIGKAFHASGIDNEDKLIAEITMRVISNFVSPTISVEEIQDLVEKELMKVRPEVAKKYIIYREWRNTERDRKTQMKHIMDGIVAIDKNDVNLSNANMSSHTPAGQMMTFASEVTKDYTYKYLLPKKYAEAHQLGDIHIHDLDYYPTKTTTCIQYDLDDLFERGFRTKNGSIRTPQSIQSYATLATIIFQTNQNEQHGGQAIPAFDFFMAEGVRKTFRKHLKTLTEFYIEVEGKEPGTEALKKIEEKAYAMTRKDTHQAMEGFIHNLNTMHSRGGNQVVFSSINYGTDTSPEGRMVIEELLKATIEGLGTRGEVPVFPIQIFKVKDGVSYSEEDYKKAMENFEAALEGKMEFQAPNFDLFLKACRTTAKALFPNFMFLDTPYNKNEKWDIKDPKRYRYELATMGCRTRVYENIAGEKSSLGRGNLSFTTMNMPRLAIEARIKAESLEESGKKEAIERKAKEIFIESVHALSELIAEQLYARYQYQRTALARQFPFMMGNDVWKGGGKLSPNDQVGDVLRQGTLGIGFIGGHNAMMALYGEGHAHSQKAWDTLFEAVTEMNKVADEYKQKYQLNFSVLATPAEGLSGRFTRMDRRKYGIIPGVTDNDYYVNSFHVDVKEPITITEKIKREAPFHAITRGGHITYVELDGEAQKNVKAIAKIVKVMHDEGIGYGSINHPVDTCQACGYKGVIYDKCPVCQSENIMRMRRITGYLTGDLSTWNSAKRAEERDRVKHG
MTKAADDNIIVGLDIGTATVSALVGEILPDGQINIIGAGSSPSRGMDKGGVNDLESVVKSVQRAIDQAELMAECQISRVFISLSGKHIASRIEKGMGTISDEEVSQEDMDRAIHTAKSIKIGDEQ
MSNKTSIEGLSALLHTLMLIPQHRWITVRELQQQLALLDIHRTTRSIKRYLDEVIVEVFNVECDSMSMPHVYRKTSEQLLKLNKQEMLYWQLTNKYLLPLVPDALNYGQGSSSERDKPLPHKASAHSKEQEWLAKVHVVLPTIREWNDEQRQVLNAVHTALLHNRMLKISSQVLQQEKALIEPLGLSVQCDALLLLFRLSGQHTIRTLALPLIDEATVSTFSFTYPTDFNLERFMREHDGVSAS
MARPETESKTIFGKRLRYVRLALGDPSREALAKSFSMTKNSIAFYERGEREPNLSVLQTYRTLYGVNINWLLTGQGKMFDTEYTKGDFDWNYFIKKIEGLEEILSNSDRSEKLNQEKIESSYEKLQQYLSRQGSTNRYTPKAATSLIDMKAKMANSYALSLFIDLLIRSISQKEVVANQ
MSLETAGQIIGGETAAVLIRQKAGEPIELGDLLVAEGEGYTILQVKDLRYSSQIPQGMRELASGFNLEGYGREVELLEPELRNYIIAEARPILHVRDGQPMIPKRLPRFFREVRRIREGDLDFLERPGNPVFLGNVRSGSKVLDTPVYVDAVDAITHHILIPATTGRGKSNLVKVMLWSLAEMDRVGILVLDPHDEYYGRNEAGLGRHPSDNVVYYSPDAPVGGNTLTINLRSLRPEHFEGIIPFTQAQEQAIARYYNEYGDGWILKIVEGEELPGVQPVTLNVLRRIFDVILGVHLDDGKIKSRGGVFRERGGESTIKDIAASLEDGKNRCGGHLKAHGRGEGHHHHHH
MQKIGEWLKEHDVKVTTIYFGGGTPTSITAEEMDLLYEEMVRSFPDVKNIREITVEAGRPDTITEEKLAVLNKYDIDRISINPQSYENETLKAIGRHHTVEETIEKYHLSRQHGMNNINMDLIIGLPGEGVKEFRHSLSETEKLMPESLTVHTLSFKRASEMTRNKHKYKVAGREEVSQMMEDAVAWTKEHGYVPYYLYRQKNILGNLENVGYSLPGQESIYNIMIMEEVQTIIGIGCGAASKFIDRDTGKITHFANPKDPKSYNERFEHYTDEKIKYLEQIFEKTTKQHLEHHHHHH
MSLVPQGGPVLCRDEMEEWSASEAMLFEEALEKYGKDFNDIRQDFLPWKSLASIVQFYYMWKTTDRYIQQKRLKAAEAEGHHHHHH
MGSDKIHHHHHHMYGLIVNKASGNGKGQRTWKKVEYELQIRNTPYLVRFTSGSGHATTIVKELLTEGVKTIIAVGGDGTINEVANGLVNHRVPLGIIPAGSGNDFARCLNIPMHYEKALHRIFENKQKKVDLLHLGQRHCLTVTGIGFDGKIAKTVNEAIYKNWFNQFGFGGLSYVLSMLEVLKDYRPTNIQITVDGKELFFSGVWLVAVANSPNYGGGIRICPEASYDDGLLNICVVHGMSKWQLLRLFPKAYKGKHVVMEQHVTLLTGKDVYVQSDTPVLVQSDGEPIMESPVRLQIKKGALSVV
